Biological target: the molecule itself
Test: negative-stain electron microscopy + sedimentation assay

B1: 454C, COOH-terminal half of scruin (domain or fragment)
chain: MQQGDSSGSTMLEGNDRISGRIRTYISGYRPLPPDQDDLSKELVPVSIPFWPPDPDTTDSVFHTVRDQYRNPEEQMGFKHFYTIPRQMDPNLGMLLFMDEDYQHSKKVLGLRSVESVPYYINRFQASGTIQDNTIPVIIGTGGVDLRDPMNIAYGRSVFQYHPLKDRWEFFGYMPQPRNYHAAAYYRSAIYITGGYDPDVRTWGEMVATKTTFVYELASKNWTRMGDMRCARSHHSLLVFNDVLYAIGGRDDIGRLVSSVESYDHESNEWTMEKSMPSPRMGMAAVAHGGYIWLLGGLTSMTTEEPPVLDDVLCYDPVFKHWVDGRPLRIGRAFGNAAVCDNKIWLCGGAAPSTDENNYLVSVPAIDVYDEETMEWKQKTSLGCPRHSAIVVALESCLYIAGGVNSHELSATSRNELYMVDNDTIQTVRELPIPLTGMAAVTIPPKCVTFRSESLSIMIRHKVTP
- binding result: binds

B2: 590C, smaller COOH-terminal fragment of scruin (domain or fragment)
chain: VIIGTGGVDLRDPMNIAYGRSVFQYHPLKDRWEFFGYMPQPRNYHAAAYYRSAIYITGGYDPDVRTWGEMVATKTTFVYELASKNWTRMGDMRCARSHHSLLVFNDVLYAIGGRDDIGRLVSSVESYDHESNEWTMEKSMPSPRMGMAAVAHGGYIWLLGGLTSMTTEEPPVLDDVLCYDPVFKHWVDGRPLRIGRAFGNAAVCDNKIWLCGGAAPSTDENNYLVSVPAIDVYDEETMEWKQKTSLGCPRHSAIVVALESCLYIAGGVNSHELSATSRNELYMVDNDTIQTVRELPIPLTGMAAVTIPPKCVTFRSESLSIMIRHKVTP
- binding result: binds
